# Source: patent US20050272649A1, “Conjoint administration of morphogens and ACE inhibitors in treatment of chronic renal failure” (priority 2002, published 2005)
# “Also recorded” adds a separate entry of the source. Where two headings read alike, the source gives them in different places.
# B1: OP-1: osteogenic protein-1 (OP-1, also known as BMP-7), morphogen of the OP/BMP family; OP-1 used interchangeably with sBMP-7 (protein)
# chain: STGSKQRSQNRSKTPKNQEALRMANVAENSSSDQRQACKKHELYVSFRDLGWQDWIIAPEGYAAYYCEGECAFPLNSYMNATNHAIVQTLVHFINPETVPKPCCAPTQLNAISVLYFDDSSNVILKKYRNMVVRACGCH
# Columns and labels:
# [1] = test system: rat remnant kidney model (5/6 NPX); assay: rat partial (5/6) nephrectomy chronic renal failure injury model; type: in vivo
# Description: A rat partial (5/6) nephrectomy or rat remnant kidney model (RRKM) model was employed essentially as described (Vukicevic, et al. (1987) J. Bone Mineral Res. 2: 533, the entire content of which is incorporated herein by reference). Male Munich-Wistar rats (2-3 months old, weighing about 200-250 g) were subjected to renal mass ablation. Specifically, the right kidney is excised in conjunction with selective ligation of the left renal artery branches such that one third of the kidney remains perfused (5/6 NPX, see FIG. 12). Immediately following surgery, plasma creatinine and BUN levels rise dramatically due to the loss of renal mass and function. Over the next several weeks of this “acute” failure phase, plasma creatinine and BUN levels of surviving animals decline somewhat toward normal values but remain elevated. Renal function then appears to remain relatively constant or stable for a period of variable duration. After this point, the animals enter a period of chronic renal failure in which there is an essentially linear decline in renal function ending in death. For these reasons, animals are given 4 weeks of recovery prior to initiation of treatments.
# Four weeks after nephrectomy, rats were divided into four treatment groups (see Table III), namely OP-1 (150 μg/kg body weight, 3×/week, by i.p. injection), Vehicle (20 mM arginine/150 mM NaCl, 0.1% Tween-80, pH 9.0, 1 ml/kg body weight, 3×/week, by i.p. injection), enalapril (100 mg/L in drinking water, 8-16 mg/kg body weight), and OP-1 with enalapril. For the first two groups (OP-1 and Vehicle), animals were sacrificed 14 weeks after nephrectomy. For the last two groups (enalapril, and OP-1 with enalapril), animals were sacrificed 26 weeks after nephrectomy. As surgical controls, rats were subjected to a “sham” operation in which the kidneys were decapsulated but no renal tissue was removed. Sham-treated animals were sacrificed 26 weeks after operation. None of the rats died in any group during this study. Systolic blood pressure, urine protein and/or glomerulosclerosis were monitored at intervals between 4 and 26 weeks post surgery.
# [2] = test system: streptozotocin-induced diabetic Sprague-Dawley rats; assay: Streptozotocin-induced diabetic nephropathy model (Example 3); type: in vivo, rat; conditions: for proteinuria level: OP-1 30 and 100 μg/kg, enalapril 50 and 100 mg/L, or combination, diabetic about 140 mg/day
# Description: Streptozotocin kills pancreatic β cells and induces type I diabetes (for review, see Cheta et al. (1998) J Pediatr Endocrinol Metab 11:11-9). It is widely used to induce experimental diabetic nephropathy in animals (see FIG. 22). Adult female Sprague-Dawley rats (weighing 200-250 g) were intraperitoneally injected with streptozotocin (60 mg/kg body weight) to induce hyperglycemia. Hyperglycemic rats then received daily injections of insulin to maintain blood glucose between 200-400 mg/dL. At week 16 when renal function declined, animals were treated weekly with OP-1 (10, 30 or 100 μg/kg body weight), enalapril (50 or 100 mg/L in drinking water) or a combination of OP-1 and enalapril. Control animals without streptozotocin treatment were handled in all other ways like treated animals. Animals were sacrificed at week 32 post-streptozotocin treatment.
# [3] = test system: alloxan-induced diabetic Sprague-Dawley rats; assay: Alloxan-induced diabetic nephropathy model; type: in vivo, rat; conditions: for proteinuria level (in words) / serum creatinine level (in words): 12 weeks of treatment; for proteinuria level / serum creatinine level: 12 weeks; for proteinuria level: diabetic about 180; for serum creatinine level: diabetic about 115
# Description: Similar to streptozotocin, alloxan kills pancreatic β cells and induces type I diabetes (for review, see Cheta et al. (1998) J Pediatr Endocrinol Metab 11: 11-9). Alloxan is also widely used to induce experimental diabetic nephropathy in animals (FIG. 25). Adult female Sprague-Dawley rats (weighing 200-250 g) were intraperitoneally injected with alloxan (70 mg/kg body weight) to induce hyperglycemia. Renal arteries were clamped just prior to injection to prevent direct nephrotoxicity, and then clamps were removed 5 minutes after injection. At week 16 when renal function declined, animals were treated with OP-1 (10 μg/kg body weight, 3×/week, or 30 μg/kg body weight, 1×/week), enalapril (100 mg/L in drinking water) or the combination of OP-1 and enalapril. Control animals without alloxan treatment were handled in all other ways like treated animals. The treatment duration was 12 weeks. All rats were sacrificed after […].
# [4] = test system: unilateral ureteral ligation in Sprague-Dawley rats; conditions: cited from earlier work; for renal blood flow (RBF): during UUO; for interstitial inflammation, fibrogenesis / renal (tubulointerstitial) fibrosis: OP-1 100 or 300 μg/kg, first 5 days after obstruction, compared with enalapril
# [5] = summary of the nephrectomy model
molecule,measurement,setting,value
"CCOC(=O)[C@H](CCc1ccccc1)N[C@@H](C)C(=O)N1CCC[C@H]1C(=O)O [enalapril, N-(1-ethoxycarbonyl-3-phenylpropyl)-L-ananyl-L-proline, reference compound]",proteinuria level (late-stage),"[1]; enalapril 100 mg/L drinking water with or without OP-1, up to 26 weeks after nephrectomy",105 mg/day
same,proteinuria level,[2],almost normal level; also recorded: significantly reduced the proteinuria level
same,proteinuria level (in words),[3],reduces the proteinuria level; also recorded: reduce the preteinuria level
same,serum creatinine level (in words),[3],decreases the serum creatinine level
same,serum creatinine level (in words),[3]; listed as elalapril,reduces the serum creatinine level at a lesser degree
same,proteinuria level,"[3]; enalapril 100 mg/L drinking water alone, or combination of OP-1 and enalapril",~140 mg/dL/24 hr
same,tubular atrophy,[4]; UUO rats,an effect not shared with ACEI enalapril
same,renal blood flow (RBF),[4],also stimulated RBF
B1,blood pressure level,"[1]; OP-1 150 μg/kg i.p. 3×/week from 4 weeks after nephrectomy, to 14 weeks",did not dramatically lower the blood pressure level
same,glomerular filtration rate,[1]; [5],improves glomerular filtration rate
same,glomerulosclerosis,[1]; [5],reduces glomerulosclerosis
same,mean GFR,"[2]; OP-1 100 μg/kg weekly, weeks 16-32, 32-week diabetic animals about 0.38",about 0.7 ml/min/100 g body weight
same,proteinuria level,[2],almost normal level; also recorded: reduces proteinuria; also recorded: significantly reduced the proteinuria level
same,glomerular filtration rate (in words),[2]; weeks 16-32 treatment,significantly increased the glomerular filtration rate; also recorded: increases the glomerular filtration rate
same,proteinuria level (in words),[3],reduces the proteinuria level; also recorded: reduce the preteinuria level
same,serum creatinine level (in words),[3],decreases the serum creatinine level; also recorded: dramatically reduces the serum creatinine level
same,serum creatinine level,[3]; OP-1 10 μg/kg 3×/week,about 65 μmole/L
same,proteinuria level,[3]; OP-1 10 μg/kg 3×/week,about 80 mg/dL/24 hr
same,serum creatinine level,[3]; OP-1 30 μg/kg 1×/week,~55 µmol/L
same,proteinuria level,[3]; OP-1 30 μg/kg 1×/week,~110 mg/dL/24 hr
same,"interstitial inflammation, fibrogenesis / renal (tubulointerstitial) fibrosis",[4],prevented interstitial inflammation and fibrogenesis; also recorded: more effective in preventing tubulointerstitial fibrosis and in preserving renal function; also recorded: reduces renal fibrosis
same,"interstitial inflammation, fibrogenesis / renal (tubulointerstitial) fibrosis",[4]; listed as OP-1/BMP-7,Inhibits renal fibrosis
same,epithelial cell apoptosis produced by UUO,[4]; UUO rats,blocked the stimulation of epithelial cell apoptosis
same,tubular atrophy,[4]; UUO rats,prevention of tubular atrophy; also recorded: reduces tubular atrophy
same,tubular epithelial disruption,[4]; UUO rats,inhibited tubular epithelial disruption
same,renal blood flow (RBF),[4],preserved renal blood flow
